Patent US20220048967A1 (published 2022)
Numbered stars: 1 amine (or outer) side, 2 acyl side, 3 side chain; on linkers, the order of the positions; unused ones are H or OH. Square brackets hold non-standard residues; d marks the D form. Side chains are listed from the residue outwards. Ends that are not written are not given here. * marks the point of attachment. C20 diacid = O=C(O)CCCCCCCCCCCCCCCCCCC(=O)*; C18 diacid = O=C(O)CCCCCCCCCCCCCCCCC(=O)*; γGlu = O=C(O)[C@H](CCC(=O)[*:2])N[*:1]; AEEA = NCCOCCOCC(=O)O; Aib = CC(C)(N)C(=O)O

T1: human gastric inhibitory peptide receptor (GIPR) (human, UniProt P48546 22-466)
T1 sequence (looked up): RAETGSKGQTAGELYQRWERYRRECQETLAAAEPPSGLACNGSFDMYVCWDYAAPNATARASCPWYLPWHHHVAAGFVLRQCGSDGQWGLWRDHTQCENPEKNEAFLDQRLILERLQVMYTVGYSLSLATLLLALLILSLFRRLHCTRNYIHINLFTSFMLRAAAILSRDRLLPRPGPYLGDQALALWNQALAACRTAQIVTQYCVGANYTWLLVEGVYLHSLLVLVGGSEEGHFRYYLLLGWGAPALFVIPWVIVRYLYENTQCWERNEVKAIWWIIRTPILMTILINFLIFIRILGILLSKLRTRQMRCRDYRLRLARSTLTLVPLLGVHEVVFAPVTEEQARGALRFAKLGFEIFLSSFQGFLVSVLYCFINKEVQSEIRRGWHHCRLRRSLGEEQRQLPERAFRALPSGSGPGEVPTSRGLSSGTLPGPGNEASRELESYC


Columns and labels:
[1] = molecular target: T1, human gastric inhibitory peptide …; test: cell-based or functional assay
[2] = molecular target: human GLP-1 receptor (GLP-1R) (human, UniProt P43220 24-463); test: cell-based or functional assay

Row | Binder | hGIPR cAMP EC50 ratio [1] | hGIPR cAMP Rel EC50 [1] | hGLP1R cAMP EC50 ratio [2] | hGLP1R cAMP Rel EC50 [2]
1 | Y[Aib]EGTFTSDYSILLDKK([AEEA-AEEA-γGlu-C18 diacid])AQ[Aib]EFIEYLIAGG-NH2 (N-terminus assumed; SMILES CC[C@H](C)[C@H](NC(=O)[C@H](CC(C)C)NC(=O)[C@H](Cc1ccc(O)cc1)NC(=O)[C@H](CCC(=O)O)NC(=O)[C@@H](NC(=O)[C@H](Cc1ccccc1)NC(=O)[C@H](CCC(=O)O)NC(=O)C(C)(C)NC(=O)[C@H](CCC(N)=O)NC(=O)[C@H](C)NC(=O)[C@H](CCCCNC(=O)COCCOCCNC(=O)COCCOCCNC(=O)CC[C@H](NC(=O)CCCCCCCCCCCCCCCCC(=O)O)C(=O)O)NC(=O)[C@H](CCCCN)NC(=O)[C@H](CC(=O)O)NC(=O)[C@H](CC(C)C)NC(=O)[C@H](CC(C)C)NC(=O)[C@@H](NC(=O)[C@H](CO)NC(=O)[C@H](Cc1ccc(O)cc1)NC(=O)[C@H](CC(=O)O)NC(=O)[C@H](CO)NC(=O)[C@@H](NC(=O)[C@H](Cc1ccccc1)NC(=O)[C@@H](NC(=O)CNC(=O)[C@H](CCC(=O)O)NC(=O)C(C)(C)NC(=O)[C@@H](N)Cc1ccc(O)cc1)[C@@H](C)O)[C@@H](C)O)[C@@H](C)CC)[C@@H](C)CC)C(=O)N[C@@H](C)C(=O)NCC(=O)NCC(N)=O) [Example 297] | 3 | 45.1 pM | 0.445 | 111 pM
2 | Y[Aib]EGTFTSDYSILLDKK([AEEA-AEEA-γGlu-C18 diacid])AQQAFIEYLIEGG-NH2 (N-terminus assumed; SMILES CC[C@H](C)[C@H](NC(=O)[C@H](CC(C)C)NC(=O)[C@H](Cc1ccc(O)cc1)NC(=O)[C@H](CCC(=O)O)NC(=O)[C@@H](NC(=O)[C@H](Cc1ccccc1)NC(=O)[C@H](C)NC(=O)[C@H](CCC(N)=O)NC(=O)[C@H](CCC(N)=O)NC(=O)[C@H](C)NC(=O)[C@H](CCCCNC(=O)COCCOCCNC(=O)COCCOCCNC(=O)CC[C@H](NC(=O)CCCCCCCCCCCCCCCCC(=O)O)C(=O)O)NC(=O)[C@H](CCCCN)NC(=O)[C@H](CC(=O)O)NC(=O)[C@H](CC(C)C)NC(=O)[C@H](CC(C)C)NC(=O)[C@@H](NC(=O)[C@H](CO)NC(=O)[C@H](Cc1ccc(O)cc1)NC(=O)[C@H](CC(=O)O)NC(=O)[C@H](CO)NC(=O)[C@@H](NC(=O)[C@H](Cc1ccccc1)NC(=O)[C@@H](NC(=O)CNC(=O)[C@H](CCC(=O)O)NC(=O)C(C)(C)NC(=O)[C@@H](N)Cc1ccc(O)cc1)[C@@H](C)O)[C@@H](C)O)[C@@H](C)CC)[C@@H](C)CC)C(=O)N[C@@H](CCC(=O)O)C(=O)NCC(=O)NCC(N)=O) [Example 294] | 0.75 | 183 pM | 0.249 | 185 pM
3 | Y[Aib]EGTFTSDYSILLDKK([AEEA-AEEA-γGlu-C20 diacid])AQ[Aib]AFIEYLIAGGPSSGAPPPS-NH2 (N-terminus assumed; SMILES CC[C@H](C)[C@H](NC(=O)[C@H](CC(C)C)NC(=O)[C@H](Cc1ccc(O)cc1)NC(=O)[C@H](CCC(=O)O)NC(=O)[C@@H](NC(=O)[C@H](Cc1ccccc1)NC(=O)[C@H](C)NC(=O)C(C)(C)NC(=O)[C@H](CCC(N)=O)NC(=O)[C@H](C)NC(=O)[C@H](CCCCNC(=O)COCCOCCNC(=O)COCCOCCNC(=O)CC[C@H](NC(=O)CCCCCCCCCCCCCCCCCCC(=O)O)C(=O)O)NC(=O)[C@H](CCCCN)NC(=O)[C@H](CC(=O)O)NC(=O)[C@H](CC(C)C)NC(=O)[C@H](CC(C)C)NC(=O)[C@@H](NC(=O)[C@H](CO)NC(=O)[C@H](Cc1ccc(O)cc1)NC(=O)[C@H](CC(=O)O)NC(=O)[C@H](CO)NC(=O)[C@@H](NC(=O)[C@H](Cc1ccccc1)NC(=O)[C@@H](NC(=O)CNC(=O)[C@H](CCC(=O)O)NC(=O)C(C)(C)NC(=O)[C@@H](N)Cc1ccc(O)cc1)[C@@H](C)O)[C@@H](C)O)[C@@H](C)CC)[C@@H](C)CC)C(=O)N[C@@H](C)C(=O)NCC(=O)NCC(=O)N1CCC[C@H]1C(=O)N[C@@H](CO)C(=O)N[C@@H](CO)C(=O)NCC(=O)N[C@@H](C)C(=O)N1CCC[C@H]1C(=O)N1CCC[C@H]1C(=O)N1CCC[C@H]1C(=O)N[C@@H](CO)C(N)=O) [Example 288] | 1.2 | 73.2 pM | 0.393 | 172 pM
4 | Y[Aib]EGTFTSDYSILLDKK([AEEA-AEEA-γGlu-C18 diacid])AQHAFIEYLIEGG-NH2 (N-terminus assumed; SMILES CC[C@H](C)[C@H](NC(=O)[C@H](CC(C)C)NC(=O)[C@H](Cc1ccc(O)cc1)NC(=O)[C@H](CCC(=O)O)NC(=O)[C@@H](NC(=O)[C@H](Cc1ccccc1)NC(=O)[C@H](C)NC(=O)[C@H](Cc1c[nH]cn1)NC(=O)[C@H](CCC(N)=O)NC(=O)[C@H](C)NC(=O)[C@H](CCCCNC(=O)COCCOCCNC(=O)COCCOCCNC(=O)CC[C@H](NC(=O)CCCCCCCCCCCCCCCCC(=O)O)C(=O)O)NC(=O)[C@H](CCCCN)NC(=O)[C@H](CC(=O)O)NC(=O)[C@H](CC(C)C)NC(=O)[C@H](CC(C)C)NC(=O)[C@@H](NC(=O)[C@H](CO)NC(=O)[C@H](Cc1ccc(O)cc1)NC(=O)[C@H](CC(=O)O)NC(=O)[C@H](CO)NC(=O)[C@@H](NC(=O)[C@H](Cc1ccccc1)NC(=O)[C@@H](NC(=O)CNC(=O)[C@H](CCC(=O)O)NC(=O)C(C)(C)NC(=O)[C@@H](N)Cc1ccc(O)cc1)[C@@H](C)O)[C@@H](C)O)[C@@H](C)CC)[C@@H](C)CC)C(=O)N[C@@H](CCC(=O)O)C(=O)NCC(=O)NCC(N)=O) [Example 295] | 0.481 | 281 pM | 0.398 | 116 pM
5 | YXEGTFTSDYSIXLDKKAQXEFIEYLIAGGPSSGAPPPS (Aib2, αMeL13, (2-[2-(2-Amino-ethoxy)-ethoxy]-acetyl)2-(γ-Glu)-CO-(CH2)18-CO2H on K17, Aib20, C-terminal NH2) [Example 289] | 4.13 | 22.8 pM | 1.33 | 54.4 pM
6 | XXEGTFTSDYSIXLDXKAQXAFIXYLIAGGPSSGAPPPS (D-Tyr1, Aib2, αMeL13, Orn16, (2-[2-(2-Amino-ethoxy)-ethoxy]-acetyl)2-(γ-Glu)-CO-(CH2)18-CO2H on K17, Aib20, D-Glu24, C-terminal NH2) [Example 291] | 0.746 | 118 pM | 0.188 | 150 pM
7 | XXEGTFTSDYSIXLDKKAQXEFIEXLIAGGPSSGAPPPS (D-Tyr1, Aib2, αMeL13, (2-[2-(2-Amino-ethoxy)-ethoxy]-acetyl)2-(γ-Glu)-CO-(CH2)18-CO2H on K17, Aib20, αMeY25, C-terminal NH2) [Example 292] | 1.1 | 68.2 pM | 0.143 | 183 pM
8 | XXEGTFTSDYSIXLDXKAQXEFIEXLIAGGPSSGAPPPS (D-Tyr1, Aib2, αMeL13, Orn16, (2-[2-(2-Amino-ethoxy)-ethoxy]-acetyl)2-(γ-Glu)-CO-(CH2)18-CO2H on K17, Aib20, αMeY25, C-terminal NH2) [Example 293] | 1.36 | 56.2 pM | 0.197 | 132 pM
9 | XXEGTFTSDYSIXLDKKAQXEFIEYLIAGGPSSGAPPPS (D-Tyr1, Aib2, αMeL13, (2-[2-(2-Amino-ethoxy)-ethoxy]-acetyl)2-(γ-Glu)-CO-(CH2)18-CO2H on K17, Aib20, C-terminal NH2) [Example 290] | 1.09 | 62.9 pM | 0.279 | 179 pM
10 | Y[Aib]EGTFTSDYSILLDKK([AEEA-AEEA-γGlu-C18 diacid])AQKAFIEYLIEGGPSSG-NH2 (N-terminus assumed; SMILES CC[C@H](C)[C@H](NC(=O)[C@H](CC(C)C)NC(=O)[C@H](Cc1ccc(O)cc1)NC(=O)[C@H](CCC(=O)O)NC(=O)[C@@H](NC(=O)[C@H](Cc1ccccc1)NC(=O)[C@H](C)NC(=O)[C@H](CCCCN)NC(=O)[C@H](CCC(N)=O)NC(=O)[C@H](C)NC(=O)[C@H](CCCCNC(=O)COCCOCCNC(=O)COCCOCCNC(=O)CC[C@H](NC(=O)CCCCCCCCCCCCCCCCC(=O)O)C(=O)O)NC(=O)[C@H](CCCCN)NC(=O)[C@H](CC(=O)O)NC(=O)[C@H](CC(C)C)NC(=O)[C@H](CC(C)C)NC(=O)[C@@H](NC(=O)[C@H](CO)NC(=O)[C@H](Cc1ccc(O)cc1)NC(=O)[C@H](CC(=O)O)NC(=O)[C@H](CO)NC(=O)[C@@H](NC(=O)[C@H](Cc1ccccc1)NC(=O)[C@@H](NC(=O)CNC(=O)[C@H](CCC(=O)O)NC(=O)C(C)(C)NC(=O)[C@@H](N)Cc1ccc(O)cc1)[C@@H](C)O)[C@@H](C)O)[C@@H](C)CC)[C@@H](C)CC)C(=O)N[C@@H](CCC(=O)O)C(=O)NCC(=O)NCC(=O)N1CCC[C@H]1C(=O)N[C@@H](CO)C(=O)N[C@@H](CO)C(=O)NCC(N)=O) [Example 296] | 0.564 | 198 pM | 0.82 | 86.7 pM
